The subject of this assay is immune cells. The assay can be described thus: Inducing activity for interferon-γ in immune cells. Type of assay: cell-based. To be noted: IL-12 (positive control) with 40 ng/mL. As to the method: The herbal extract (prepared by Example 1) was added in T lymphocytes and natural killer cells (NK92) separated from peripheral blood. After 24 hours, the upper-layered solution was collected and the quantity of interferon thereof was measured by ELISA. […] The dosage effect appears in both the T lymphocytes and natural killer cells (NK92). The quantity of interferon-α induced by PC-IL-12 (positive control) and the herbal extract was measured in the same manner. […] Additionally, the quantity of interferon-α produced by inducing T lymphocytes by the herbal extract with 250-1,000 μg/mL was obvious, as shown in FIGS. 2B and 2C.
The inducing activity for interferon-γ of the herbal extract (prepared by Example 3) was tested.

B1: IL-12: IL-12 (positive control) with 40 ng/mL (protein, UniProt P29459 23-219; P29460 23-328, looked up)
Interleukin-12 subunit alpha: RNLPVATPDPGMFPCLHHSQNLLRAVSNMLQKARQTLEFYPCTSEEIDHEDITKDKTSTVEACLPLELTKNESCLNSRETSFITNGSCLASRKTSFMMALCLSSIYEDLKMYQVEFKTMNAKLLMDPKRQIFLDQNMLAVIDELMQALNFNSETVPQKSSLEEPDFYKTKIKLCILLHAFRIRAVTIDRVMSYLNAS
Interleukin-12 subunit beta: IWELKKDVYVVELDWYPDAPGEMVVLTCDTPEEDGITWTLDQSSEVLGSGKTLTIQVKEFGDAGQYTCHKGGEVLSHSLLLLHKKEDGIWSTDILKDQKEPKNKTFLRCEAKNYSGRFTCWWLTTISTDLTFSVKSSRGSSDPQGVTCGAATLSAERVRGDNKEYEYSVECQEDSACPAAEESLPIEVMVDAVHKLKYENYTSSFFIRDIIKPDPPKNLQLKPLKNSRQVEVSWEYPDTWSTPHSYFSLTFCVQVQGKSKREKKDRVFTDKTSATVICRKNASISVRAQDRYYSSSWSEWASVPCS
For B1, the interferon-γ produced was 50 ± 2.04 pg/mL.

(Values after patent US20090280200A1, “HERBAL EXTRACTS WHICH INDUCE IMMUNE CELLS TO PRODUCE INTERFERON AND ACTIVATE TOLL-LIKE RECEPTORS” (INDUSTRIAL TECHNOLOGY RESEARCH INSTITUTE, priority 2008, published 2009).)
